According to patent publication US20160031974A1 (UCB, published 2016):
Values belong to the binder of their own block, whether it stands above or below them.

What was measured:
[1] = molecular target: T1, Human Serum Albumin (human, UniProt P02768 25-609); assay: SPR (BIAcore T200), Fab-Fv captured by anti-human F(ab′)2, albumin as analyte; average of 3
T1 construct: also called HSA; HAS [sic]
Protocol: (§1) BIA (Biamolecular Interaction Analysis) was performed using a BIAcore T200 (GE Healthcare). Affinipure F(ab′)₂ Fragment goat anti-human IgG, F(ab′)₂ fragment specific (Jackson ImmunoResearch) was immobilised on a CM5 Sensor Chip via amine coupling chemistry to a capture level of ≈5000 response units (RUs). HBS-EP buffer (10 mM HEPES pH 7.4, 0.15 M NaCl, 3 mM EDTA, 0.05% Surfactant P20, GE Healthcare) was used as the running buffer with a flow rate of 10 μL/min. A 10 μL injection of Fab-Fv at 0.75 μg/mL was used for capture by the immobilised anti-human IgG-F(ab′)₂. Human Serum Albumin (HSA), Mouse Serum albumin (MSA) and Cynomolgus Serum Albumin (CSA) was titrated over the captured Fab-Fv at various concentrations (50 nM to 6.25 nM) at a flow rate of 30 μL/min. The surface was regenerated by 2×10 μL injection of 50 mM HCl, followed by a 5 μL injection of 5 mM NaOH at a flowrate of 10 μL/min. Background subtraction binding curves were analysed using the T200evaluation software (version 1.0) following standard procedures. Kinetic parameters were determined from the fitting algorithm.

[2] = molecular target: T2, Mouse Serum albumin (mouse, UniProt P07724 25-608); assay: as above
T2 construct: also called MSA
Protocol: as §1

[3] = molecular target: T3, Cynomolgus Serum Albumin (cynomolgus, UniProt A2V9Z4 25-608); assay: as above
T3 construct: also called CSA
Protocol: as §1

[4] = molecular target: T4, Human OX40 expressed on the cell surface (activated human CD4+ OX40+ T cells) (human, UniProt P43489 29-277); assay: flow cytometry saturation binding on activated human CD4+ OX40+ T cells, no HSA
T4 construct: whole, on cells; Also used as the target for the functional assays on human PBMC; also called cell-surface expressed OX40
T4 sequence (looked up): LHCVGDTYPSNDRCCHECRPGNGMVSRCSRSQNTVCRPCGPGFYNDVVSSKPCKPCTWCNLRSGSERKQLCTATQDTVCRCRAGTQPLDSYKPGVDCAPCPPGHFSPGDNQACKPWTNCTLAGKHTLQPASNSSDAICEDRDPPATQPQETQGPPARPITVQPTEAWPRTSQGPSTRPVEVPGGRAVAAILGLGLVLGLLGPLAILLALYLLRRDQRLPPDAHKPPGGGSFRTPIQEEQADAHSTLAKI
Protocol: (§2) Specific binding of antibody to receptor at equilibrium across a range of antibody concentrations was used to determine KD, assuming that only a very small fraction of antibody was bound to receptor at any point on the binding curve.
(§3) PBMC were isolated by separation on a Ficoll gradient and activated with 4 μg/mL PHA-L for 3 days at 37° C., 5% CO₂, 100% humidity. Following this, CD4⁺ T cells were isolated by negative selection using magnetic beads (CD4⁺ T cell Isolation Kit II for Human; Miltenyi Biotec). Approximately 1×10⁵ cells were incubated in the presence of antibody in either Facs buffer (PBS/0.2% BSA/0.09% NaN3) or Facs buffer supplemented with 5% HSA, at 4° C. The final concentration of the antibody ranged from 48 nM-0.0005 nM. The cells were washed in PBS prior to analysis by flow cytometry using a FACScalibur (Becton Dickinson). […] The number of moles of bound antibody was calculated by using interpolated values from a standard curve generated from beads comprised of differing but known amounts of fluorescent dye. Geometric mean fluorescence values were determined in the flow cytometric analyses of cells and beads. Non-specific binding was subtracted from the A26 Fab-Fv values and the specific binding curve thus generated analysed by non-linear regression using a one-site binding equation (Graphpad Prism®) to determine the KD.

[5] = molecular target: T4, Human OX40 expressed on the cell …; assay: flow cytometry binding on activated human CD4+ OX40+ T cells in 5% HSA, % maximal binding, mean of 4 or 5 donors
Protocol: Binding of AlexaFluor488-labelled A26 Fab-Fv to activated human CD4⁺0 X40⁺ T cells was measured by flow cytometry across a 5-log concentration range.
PBMC were isolated by separation on a Ficoll gradient and activated with 4 μg/mL PHA-L for 3 days at 37° C., 5% CO₂, 100% humidity. Following this, CD4⁺ T cells were isolated by negative selection using magnetic beads (CD4⁺ T cell Isolation Kit II for Human; Miltenyi Biotec). Approximately 1×10⁵ cells were incubated in the presence of antibody in either Facs buffer (PBS/0.2% BSA/0.09% NaN3) or Facs buffer supplemented with 5% HSA, at 4° C. The final concentration of the antibody ranged from 48 nM-0.0005 nM. The cells were washed in PBS prior to analysis by flow cytometry using a FACScalibur (Becton Dickinson). Titration data sets were also produced for isotype control antibodies for each A26 format to determine non specific binding. The number of moles of bound antibody was calculated by using interpolated values from a standard curve generated from beads comprised of differing but known amounts of fluorescent dye. Geometric mean fluorescence values were determined in the flow cytometric analyses of cells and beads. Non-specific binding was subtracted from the A26 Fab-Fv values and the specific binding curve thus generated analysed by non-linear regression using a one-site binding equation (Graphpad Prism®) to determine the KD.

[6] = molecular target: T5, Human OX40 (soluble analyte in BIAcore) (human, UniProt P43489 29-214, limits assumed); assay: SPR (BIAcore T200), antibody captured by anti-human F(ab′)2, human OX40 as analyte; average of 4
T5 construct: also called hOX40
T5 sequence (looked up): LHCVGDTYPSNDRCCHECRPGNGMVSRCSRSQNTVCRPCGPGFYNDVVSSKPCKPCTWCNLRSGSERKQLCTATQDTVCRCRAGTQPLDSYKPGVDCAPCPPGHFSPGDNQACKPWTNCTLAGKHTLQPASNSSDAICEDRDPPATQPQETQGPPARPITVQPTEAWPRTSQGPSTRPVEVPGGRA
Protocol: as §1, with “of A26 Fab′” for “of Fab-Fv”, “at 0.5 μg/mL or A26Fab-dsFv at 1” for “at 0.75”, “Human OX40” for “Human Serum Albumin (HSA), Mouse Serum albumin (MSA) and Cynomolgus Serum Albumin (CSA)”, “captured A26” for “captured Fab-Fv”, “concentrations (25” for “concentrations (50”, “to 1.5625” for “to 6.25”

[7] = molecular target: T4, Human OX40 expressed on the cell …; assay: cell-based or functional assay
[8] = molecular target: T4, Human OX40 expressed on the cell …; assay: flow cytometry saturation binding on activated human CD4+ OX40+ T cells, with 5% HSA
Protocol: as §2, §3

[9] = molecular target: T4, Human OX40 expressed on the cell …; assay: cell-based or functional assay; remark: listed apart in the source
[10] = molecular target: T4, Human OX40 expressed on the cell …; assay: flow cytometry ligand-blocking assay on activated human CD4+ OX40+ T cells; blocked ligand: recombinant OX40L (biotinylated CD252 muCD8)
Protocol: (§4) The capacity of A26 Fab-dsFv to block the interaction between cell-surface expressed OX40 and recombinant OX40L was measured using a flow cytometry-based ligand blocking assay. Briefly, activated human CD4⁺OX40⁺ T cells were pre-incubated with a titration of A26 Fab-Fv. Recombinant OX40L was subsequently added to the cells and allowed to bind in the presence of A26 Fab-dsFv. The proportion of OX40L bound was then detected by flow cytometry using a labelled secondary reagent.
(§5) PBMC were isolated by separation on a Ficoll gradient and activated with 4 μg/mL PHA-L (Sigma) for 3 days at 37° C., 5% CO₂, 100% humidity. CD4⁺ T cells were then purified from the culture by negative selection using MACS columns (Miltenyi Biotech, CD4⁺ T cell isolation kit II). 2×10⁵ CD4⁺ T cells were incubated in the presence of A26 Fab-dsFv (final concentration range 10 μg/mL-0.000056 μg/mL (136.6 nM-0.000765 nM)) for 30 minutes at 4° C. OX40L (biotinylated CD252 muCD8, Ancell) was added at a final concentration of 2 μg/mL and incubated for a further 30 minutes at 4° C. Cells were washed and OX40L binding detected by incubation with PE-labelled streptavadin (Jackson Immunoresearch) prior to analysis by flow cytometry using a FACS Canto (Becton Dickinson). A matched non-OX40 binding Fab-dsFv was used as a control. The inhibition curve was analysed by non-linear regression (Graphpad Prism®) to determine the IC₅₀. […]

[11] = molecular target: T4, Human OX40 expressed on the cell …; assay: flow cytometry competition on activated human CD4+OX40+ T cells; competitor OX40L (biotinylated CD252 muCD8) at 2 µg/mL
Protocol: as §4, §5

Kd [1]: 2930 pM
koff [1]: 0.000163 s⁻¹
kon [1]: 58400 M⁻¹ s⁻¹
Kd [2]: 4160 pM
koff [2]: 0.000368 s⁻¹
kon [2]: 88600 M⁻¹ s⁻¹
Kd [3]: 2660 pM
koff [3]: 0.000189 s⁻¹
kon [3]: 71000 M⁻¹ s⁻¹
B1: A26 Fab-dsFv (645gH5gL4) (bispecific antibody)
heavy: EVQLVESGGGLVQPGGSLRLSCAASGFTFTNYGIHWIRQAPGKGLEWVASISPSGGLTYYRDSVKGRFTISRDDAKNSPYLQMNSLRAEDTAVYYCATGGEGIFDYWGQGTLVTVSSASTKGPSVFPLAPSSKSTSGGTAALGCLVKDYFPEPVTVSWNSGALTSGVHTFPAVLQSSGLYSLSSVVTVPSSSLGTQTYICNVNHKPSNTKVDKKVEPKSCSGGGGSGGGGTGGGGSEVQLLESGGGLVQPGGSLRLSCAVSGIDLSNYAINWVRQAPGKCLEWIGIIWASGTTFYATWAKGRFTISRDNSKNTVYLQMNSLRAEDTAVYYCARTVPGYSTAPYFDLWGQGTLVTVSS
light: DIQMTQSPSSLSASVGDRVTITCRATQSIYNALAWYQQKPGKAPKLLIYNANTLHTGVPSRFSASGSGTDSTLTISSLQPEDFATYYCQQYYDYPLTFGGGTKVEIKRTVAAPSVFIFPPSDEQLKSGTASVVCLLNNFYPREAKVQWKVDNALQSGNSQESVTEQDSKDSTYSLSSTLTLSKADYEKHKVYACEVTHQGLSSPVTKSFNRGECGGGGSGGGGSGGGGSDIQMTQSPSSVSASVGDRVTITCQSSPSVWSNFLSWYQQKPGKAPKLLIYEASKLTSGVPSRFSGSGSGTDFTLTISSLQPEDFATYYCGGGYSSISDTTFGCGTKVEIKRT
notes: also called A26 Fab-Fv; Fab-Fv

Kd [4]: 322 pM
EC50 (read off the curve) [5]: ~200 pM
Kd [6]: 48.4 pM
koff [6]: 1.12e-05 s⁻¹
kon [6]: 233000 M⁻¹ s⁻¹
EC50 for inhibition of human MLR proliferative response [7]: 880 pM
Kd [8]: 230 pM
Inhibition of IL-5 Production EC50 (human HDM in vitro assay) [9]: 1310 pM
Inhibition of IL-13 Production EC50 (human HDM in vitro assay) [9]: 928 pM
IC50 (read off the curve) [10]: ~700 pM
EC50 [11]: 739 pM
B2: A26 Fab′-PEG (A26 Fab-40K PEG′ described in WO2010/096418) (Fab, V domains shown)
VH: EVQLVESGGGLVQPGGSLRLSCAASGFTFTNYGIHWIRQAPGKGLEWVASISPSGGLTYYRDSVKGRFTISRDDAKNSPYLQMNSLRAEDTAVYYCATGGEGIFDYWGQGTLVTVSS
VL: DIQMTQSPSSLSASVGDRVTITCRATQSIYNALAWYQQKPGKAPKLLIYNANTLHTGVPSRFSASGSGTDSTLTISSLQPEDFATYYCQQYYDYPLTFGGGTKVEIKR
modifications: 40K PEG; site of attachment not given

Kd [4]: 85 pM
EC50 (read off the curve) [5]: ~90 pM
Kd [6]: ≤ 46.8 pM
koff [6]: ≤ 1e-05 s⁻¹
kon [6]: 218000 M⁻¹ s⁻¹
EC50 for inhibition of human MLR proliferative response [7]: 250 pM
Kd [8]: 68 pM
Inhibition of IL-5 Production EC50 (human HDM in vitro assay) [9]: 680 pM
Inhibition of IL-13 Production EC50 (human HDM in vitro assay) [9]: 335 pM
IC50 (read off the curve) [10]: ~300 pM
EC50 [11]: 242 pM
B3: A26 Fab′ (Fab, V domains shown)
VH: B2 VH
VL: B2 VL
